The target in the series is KLF15-ZF-GST (human, UniProt Q9UIH9 294-416). Nature of the series: competition; 50x, 250x vs bRho29 probe; also hRho29 probe (data not shown); EMSA: 4 mM HEPES, 5 mM EGTA, 100 mM KCl, 0.25 mM ZnCl2, 0.02% NP40, 0.1 M DTT, 4% glycerol, 90-120 min on ice, pH not stated; footprinting: same buffer, DNase I at room temperature 1 min. As to conditions: protein: recombinant; tags: N-terminal GST; label: unlabeled; GG ends end-filled. Background: In EMSA bound probe runs differently from free probe, usually more slowly.
Sequence of KLF15-ZF-GST (Q9UIH9 294-416): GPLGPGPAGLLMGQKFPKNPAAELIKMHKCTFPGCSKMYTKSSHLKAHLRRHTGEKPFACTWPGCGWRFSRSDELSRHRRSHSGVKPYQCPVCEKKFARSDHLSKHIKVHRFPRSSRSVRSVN

B1: IRBP1 (dsDNA)
DNA 1: GGACAGGATTAAAGGCTTACTGGAG
DNA 2: CTCCAGTAAGCCTTTAATCCTGTCC
As to B1, the binding result is listed as “no binding”.

B2: IRBP2 (dsDNA)
DNA 1: GGACTTGTCAGGGCCTTTA
DNA 2: TAAAGGCCCTGACAAGTCC
Turning to B2, the binding result was “no binding”.
